# Patent US20110020786A1 (BAYLOR COLLEGE OF MEDICINE, published 2011)
# Ends that are not written are not given here.
# T1: Norwalk virus-like particles (genogroup I) (Norwalk virus (genogroup I Norovirus), UniProt Q83884 1-530)
# T1 construct: also called NV; NVLPs
# T1 sequence: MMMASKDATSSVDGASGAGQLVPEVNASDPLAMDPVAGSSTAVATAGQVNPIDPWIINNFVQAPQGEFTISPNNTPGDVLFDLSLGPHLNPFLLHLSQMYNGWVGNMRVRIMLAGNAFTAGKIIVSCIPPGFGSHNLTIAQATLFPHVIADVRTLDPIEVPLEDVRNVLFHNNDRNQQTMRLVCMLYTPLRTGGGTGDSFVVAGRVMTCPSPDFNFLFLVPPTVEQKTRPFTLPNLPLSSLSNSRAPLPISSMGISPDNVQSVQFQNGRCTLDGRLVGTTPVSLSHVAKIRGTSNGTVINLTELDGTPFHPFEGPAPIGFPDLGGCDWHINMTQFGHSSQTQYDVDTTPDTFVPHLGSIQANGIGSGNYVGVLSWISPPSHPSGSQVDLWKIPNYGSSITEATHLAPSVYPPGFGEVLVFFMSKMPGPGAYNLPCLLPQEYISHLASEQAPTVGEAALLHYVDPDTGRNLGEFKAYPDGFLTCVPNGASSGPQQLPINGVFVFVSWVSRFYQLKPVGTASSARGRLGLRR
# Tests used:
# [1] = target: T1, Norwalk virus-like particles (genogroup …); experiment: SPR (BIAcore), VLPs immobilized, dendrimer injected
# [2] = target: T2, Houston virus-like particles (genogroup II) (Norovirus genogroup II, Houston strain); experiment: as above
# T2 construct: Recombinant VLP; also called HOV
# [3] = target: T3, Snow Mountain virus-like particles (genogroup II) (Norovirus genogroup II, Snow Mountain …); experiment: as above
# T3 construct: Recombinant VLP; also called SMV
# [4] = target: T4, Grimsby virus-like particles (genogroup II) (Norovirus genogroup II, Grimsby strain); experiment: as above
# T4 construct: Recombinant VLP; also called GRV
# [5] = target: T1, Norwalk virus-like particles (genogroup …); experiment: ELISA: dendrimer coated at 0.4 mg/mL (32 µM), VLPs added at 2 µg/mL, detection with MAb3912 and goat anti-mouse-HRP, ABTS at 405 nm
# [6] = target: T1, Norwalk virus-like particles (genogroup …); experiment: ELISA: dendrimer coated, VLPs added, detection with MAb3912 and goat anti-mouse-HRP, ABTS at 405 nm
binder,measurement,setting,value
"AHFQTHTVPLSL (also: octovalent MAP dendrimer, eight copies on branching lysine core, Octovalent peptide dendrimer (MAP)) [AHFQTHTVPLSL8 (the octovalent dendrimer of SEQ ID NO: 2)]",equilibrium average response,[1],6750 RU
same,equilibrium average response,[2],6710 RU
same,equilibrium average response,[3],6430 RU
same,equilibrium average response,[4],6380 RU
"RHFQTHTVPLSL (also: octovalent MAP dendrimer, eight copies on branching lysine core, Octovalent peptide dendrimer (MAP)) [RHFQTHTVPLSL8 (the octovalent dendrimer of SEQ ID NO: 1)]",binding result,[5],binds
SREPQYGGPAAD (also called nonspecific octovalent dendrimer) [SREPQYGGPAAD8 (the octovalent dendrimer of SEQ ID NO: 5)],binding result,[6],no binding
